Assay results reported in patent US20200347130A1 (JIANGSU HENGRUI MEDICINE, published 2020).
Residue numbers refer to the chain shown, from its start. One block for each binder: values may come before it.

Legend:
[1] = target: T1, Full-length human CD96 on CHO-S cells (human, UniProt P40200 22-585); experiment: cell ELISA on fixed CHO-S cells overexpressing human CD96, HRP anti-human secondary antibody, OD450
T1 construct: also called CD96-CHOs; hCD96-CHOs
T1 sequence: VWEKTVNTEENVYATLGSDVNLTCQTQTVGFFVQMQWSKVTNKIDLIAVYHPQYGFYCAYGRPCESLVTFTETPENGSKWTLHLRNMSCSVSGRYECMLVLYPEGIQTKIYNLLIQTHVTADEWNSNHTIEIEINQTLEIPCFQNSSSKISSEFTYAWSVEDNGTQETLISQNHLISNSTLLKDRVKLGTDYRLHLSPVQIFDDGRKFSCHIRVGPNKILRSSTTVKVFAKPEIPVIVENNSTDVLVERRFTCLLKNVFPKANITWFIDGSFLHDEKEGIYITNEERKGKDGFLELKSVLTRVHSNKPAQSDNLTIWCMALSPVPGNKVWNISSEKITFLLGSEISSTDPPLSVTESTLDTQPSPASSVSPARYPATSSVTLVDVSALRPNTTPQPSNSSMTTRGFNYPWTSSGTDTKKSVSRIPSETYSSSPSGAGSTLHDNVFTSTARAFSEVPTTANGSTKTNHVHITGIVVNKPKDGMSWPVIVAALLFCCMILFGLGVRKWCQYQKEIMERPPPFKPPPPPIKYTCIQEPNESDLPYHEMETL
Method: The binding capacity of the anti-CD96 antibody was tested by binding experiments of the antibody to human CD96 protein overexpressing CHO-S cells. The full-length CD96 plasmid was transfected into CHO-S cells by electrotransfection, and cells were then screened for two weeks under pressure for the detection of the expression of CD96. After the over-expressing cells were fixed at the bottom of the 96-well plate, the density of the signal after adding the antibody was used to judge the binding activity of the antibody to CD96 overexpressing CHO-S cells. The specific experimental method is as follows:
The cells were seeded at a density of 9×10⁴/100 μL/well in a 96-well plate and cultured overnight. After aspirating the supernatant, the plate was washed once with PBS, subsequently, 100 μl/well immunostaining fixation solution (Biyuntian, P0098) was added and fixed for one hour at room temperature, and the plate was washed three times with PBS. Once the liquid was discarded, 250 μl/well of 5% skim milk (BD, 232100) blocking solution diluted with PBS was added, and the plate was blocked in an incubator at 37° C. for 2.5 hours. […] The absorption value was read at 450 nm with a NOVOStar microplate reader, and the EC50 value of the CD96 antibodies to CD96 overexpressing CHO-S cells was calculated (see FIG. 1 and Table 15).

[2] = target: T2, CD96 epitope peptide #3 IAVYHPQYGFYCAYGRPCES (47-66) (human); experiment: peptide ELISA, peptide coated
T2 construct: also called 3# peptides; #3 antigen fragment
T2 peptide: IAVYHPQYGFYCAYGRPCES
Method: (§1) The epitopes recognized by anti-CD96 antibody were detected by the assay of binding the antibody to different polypeptide fragments of CD96 protein. The fragments of different polypeptides of the CD96 antigen were coated on the microtiter plate. The signal density after the antibody was added was used to judge the binding activity of the antibody and the polypeptide. The specific experimental method is as follows:
(§2) The polypeptides were diluted to a concentration of 20 μg/ml with PBS buffer (Shanghai Yuanpei Biotechnology Co., Ltd. Cat No. B320), pH 7.4, added to a 96-well microtiter plate (Corning, Cat No. CLS3590-100EA) at a volume of 50 μl/well, and coated at 4° C. overnight. After discarding the liquid, 250 μl/well of 5% skim milk (BD skim milk, Cat No. 232100) blocking solution diluted with PBS was added, and the plate was incubated in an incubator at 37° C. for 3 hours. After blocking, the blocking solution was discarded, and the plate was washed 5 times with PBST buffer (pH 7.4 PBS containing 0.05% tween-20). 50 μl/well of different concentrations of the antibodies to be tested (hybridoma purification antibody or humanized antibody) diluted with sample dilution was added, and the plate was incubated in an incubator at 37° C. for 2 hours. […] After washing the plate 5 times with PBST, 50 μl/well of TMB chromogenic substrate (KPL, Cat No. 52-00-03) was added, the plate was incubated at room temperature for 5-15 min, followed by adding 50 μl/well of 1M H₂SO₄ to stop the reaction. The absorption value was read at 450 nm with a microplate reader (Thermo Scientific MuLtiskan MK3), and the epitopes that CD96 antibody can recognize were analyzed.

[3] = target: T3, CD96 epitope peptide #2 (32-51) (human); experiment: peptide ELISA, peptide coated
T3 peptide: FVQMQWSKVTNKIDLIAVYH
Method: as §1, §2

[4] = target: T4, CD96 epitope peptide #4 (62-81) (human); experiment: peptide ELISA, peptide coated
T4 peptide: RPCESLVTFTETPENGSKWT
Method: as §1, §2

[5] = target: T5, CD96 epitope peptide #7 (107-126) (human); experiment: peptide ELISA, peptide coated
T5 peptide: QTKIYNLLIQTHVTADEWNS
Method: as §1, §2

[6] = target: T6, CD96 epitope peptide #10 (149-170) (human); experiment: peptide ELISA, peptide coated
T6 peptide: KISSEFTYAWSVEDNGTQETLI
Method: as §1, §2

[7] = target: T7, CD96 epitope peptide #11 (166-185) (human); experiment: peptide ELISA, peptide coated
T7 peptide: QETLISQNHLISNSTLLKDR
Method: as §1, §2

[8] = target: T8, CD96 epitope peptide #12 (181-200) (human); experiment: peptide ELISA, peptide coated
T8 peptide: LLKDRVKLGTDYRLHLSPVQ
Method: as §1, §2

[9] = target: T9, CD96 epitope peptide #15 (220-239) (human); experiment: peptide ELISA, peptide coated
T9 peptide: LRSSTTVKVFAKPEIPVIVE
Method: as §1, §2

[10] = target: T10, CD96 epitope peptide #18 (265-284) (human); experiment: peptide ELISA, peptide coated
T10 peptide: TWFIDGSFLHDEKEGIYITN
Method: as §1, §2

[11] = target: T11, CD96 epitope peptide #22 (325-344) (human); experiment: peptide ELISA, peptide coated
T11 peptide: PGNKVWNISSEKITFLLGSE
Method: as §1, §2

EC50 (read off the curve) [1]: ~0.05 nM
B1: h1719-010 (antibody, V domains shown)
VH: EVTLKESGPVLVKPTETLTLTCTVSGFSLSSYGVSWVRQPPGKGLEWLGVIWGDGNTNYHSVLISRLTISKDTSKSQVVLTLTNMDPVDTATYYCAKQNYYGSRYGYPIDYWGQGTTVTVSS
VL: DIQMTQSPSSVSASVGDRVTITCKATQDVGTAVAWYQQKPGKAPKLLIYWASTRHTGVPSRFSGSGSGTDFTLTISSLQPEDFATYYCQQYGSSVLTFGGGTKVEIK
notes: Only variable regions are tied to this name

binding result [2]: binds
B2: ch1720 (antibody, human IgG4 S228P, kappa, V domains shown)
VH: EFQLQQSGPELVKPGASVKISCKASAYSLTDYNMNWVKQSNGKSLEWIGVINPSYGISSYNQKFKGKATLTVDQSSSTAYMHLNSLTSEDSAVYYCARQLRLPGYFDVWGTGTTVTVSS
VL: DIKMTQSPSSKNASLGERVTITCKASQDINSYLNWFQQKPGKSPKTLIYRASRLVDGVPSRFSGSGSGQDYSLTISSLEYEDMGIYYCLKYDEFPYTFGGGTKLEIKR
notes: also called chimeric antibody corresponding to m1720

binding result [3]: binds
binding result [4]: binds
binding result [5]: binds
binding result [6]: binds
binding result [7]: binds
binding result [8]: binds
binding result [9]: binds
binding result [10]: binds
binding result [11]: binds
B3: ch1718 (antibody, human IgG4 S228P, kappa, V domains shown)
VH: B2 VH with L29I, S58T, S59D, K63N, G66D, H82Q, R98I, T116I
VL: B2 VL with K11M, N12Y, S31N, S52N, L104V
notes: also called chimeric antibody corresponding to m1718
